# According to IntAct's records for PubMed 10097141:
# B1: Polycystin-2 (Homo sapiens), Q13563 (parent)
# chain: MVNSSRVQPQQPGDAKRPPAPRAPDPGRLMAGCAAVGASLAAPGGLCEQRGLEIEMQRIRQAAARDPPAGAAASPSPPLSSCSRQAWSRDNPGFEAEEEEEEVEGEEGGMVVEMDVEWRPGSRRSAASSAVSSVGARSRGLGGYHGAGHPSGRRRRREDQGPPCPSPVGGGDPLHRHLPLEGQPPRVAWAERLVRGLRGLWGTRLMEESSTNREKYLKSVLRELVTYLLFLIVLCILTYGMMSSNVYYYTRMMSQLFLDTPVSKTEKTNFKTLSSMEDFWKFTEGSLLDGLYWKMQPSNQTEADNRSFIFYENLLLGVPRIRQLRVRNGSCSIPQDLRDEIKECYDVYSVSSEDRAPFGPRNGTAWIYTSEKDLNGSSHWGIIATYSGAGYYLDLSRTREETAAQVASLKKNVWLDRGTRATFIDFSVYNANINLFCVVRLLVEFPATGGVIPSWQFQPLKLIRYVTTFDFFLAACEIIFCFFIFYYVVEEILEIRIHKLHYFRSFWNCLDVVIVVLSVVAIGINIYRTSNVEVLLQFLEDQNTFPNFEHLAYWQIQFNNIAAVTVFFVWIKLFKFINFNRTMSQLSTTMSRCAKDLFGFAIMFFIIFLAYAQLAYLVFGTQVDDFSTFQECIFTQFRIILGDINFAEIEEANRVLGPIYFTTFVFFMFFILLNMFLAIINDTYSEVKSDLAQQKAEMELSDLIRKGYHKALVKLKLKKNTVDDISESLRQGGGKLNFDELRQDLKGKGHTDAEIEAIFTKYDQDGDQELTEHEHQQMRDDLEKEREDLDLDHSSLPRPMSSRSFPRSLDDSEEDDDEDSGHSSRRRGSISSGVSYEEFQVLVRRVDRMEHSIGSIVSKIDAVIVKLEIMERAKLKRREVLGRLLDGVAEDERLGRDSEIHREQMERLVREELERWESDDAASQISHGLGTPVGLNGQPRPRSSRPSSSQSTEGMEGAGGNGSSNVHV
# Variants of: B1
# Details: with TRPC1, P48995-2
# Chain of TRPC1, P48995-2 (P48995 other isoform, or with tags, fused parts or gaps): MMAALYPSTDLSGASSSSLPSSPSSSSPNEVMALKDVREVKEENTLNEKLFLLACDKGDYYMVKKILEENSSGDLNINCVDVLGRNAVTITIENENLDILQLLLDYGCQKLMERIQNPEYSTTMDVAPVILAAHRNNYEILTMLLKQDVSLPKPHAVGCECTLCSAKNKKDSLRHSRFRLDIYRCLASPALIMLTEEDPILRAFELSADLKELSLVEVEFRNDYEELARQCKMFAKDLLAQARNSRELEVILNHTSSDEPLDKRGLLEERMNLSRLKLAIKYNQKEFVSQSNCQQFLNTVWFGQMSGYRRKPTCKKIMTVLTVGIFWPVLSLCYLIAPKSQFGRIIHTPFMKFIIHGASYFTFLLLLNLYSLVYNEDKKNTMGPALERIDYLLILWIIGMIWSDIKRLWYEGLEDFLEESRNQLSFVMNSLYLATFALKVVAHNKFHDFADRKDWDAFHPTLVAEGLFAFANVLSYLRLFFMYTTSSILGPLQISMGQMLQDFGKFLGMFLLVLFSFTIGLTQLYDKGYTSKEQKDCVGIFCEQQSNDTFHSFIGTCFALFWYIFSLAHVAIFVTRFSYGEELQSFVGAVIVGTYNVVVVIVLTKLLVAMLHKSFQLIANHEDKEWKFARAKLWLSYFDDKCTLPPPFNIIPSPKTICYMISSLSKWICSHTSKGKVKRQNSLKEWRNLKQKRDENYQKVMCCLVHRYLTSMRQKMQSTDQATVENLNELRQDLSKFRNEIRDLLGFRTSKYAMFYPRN
row,effect of a mutation on the interaction,Variant
1,disrupting interaction,D886A

# Variants of: B1
# Details: with pkd1_human PKD1, P98161
# Chain of pkd1_human PKD1, P98161 (P98161 whole entry, looked up): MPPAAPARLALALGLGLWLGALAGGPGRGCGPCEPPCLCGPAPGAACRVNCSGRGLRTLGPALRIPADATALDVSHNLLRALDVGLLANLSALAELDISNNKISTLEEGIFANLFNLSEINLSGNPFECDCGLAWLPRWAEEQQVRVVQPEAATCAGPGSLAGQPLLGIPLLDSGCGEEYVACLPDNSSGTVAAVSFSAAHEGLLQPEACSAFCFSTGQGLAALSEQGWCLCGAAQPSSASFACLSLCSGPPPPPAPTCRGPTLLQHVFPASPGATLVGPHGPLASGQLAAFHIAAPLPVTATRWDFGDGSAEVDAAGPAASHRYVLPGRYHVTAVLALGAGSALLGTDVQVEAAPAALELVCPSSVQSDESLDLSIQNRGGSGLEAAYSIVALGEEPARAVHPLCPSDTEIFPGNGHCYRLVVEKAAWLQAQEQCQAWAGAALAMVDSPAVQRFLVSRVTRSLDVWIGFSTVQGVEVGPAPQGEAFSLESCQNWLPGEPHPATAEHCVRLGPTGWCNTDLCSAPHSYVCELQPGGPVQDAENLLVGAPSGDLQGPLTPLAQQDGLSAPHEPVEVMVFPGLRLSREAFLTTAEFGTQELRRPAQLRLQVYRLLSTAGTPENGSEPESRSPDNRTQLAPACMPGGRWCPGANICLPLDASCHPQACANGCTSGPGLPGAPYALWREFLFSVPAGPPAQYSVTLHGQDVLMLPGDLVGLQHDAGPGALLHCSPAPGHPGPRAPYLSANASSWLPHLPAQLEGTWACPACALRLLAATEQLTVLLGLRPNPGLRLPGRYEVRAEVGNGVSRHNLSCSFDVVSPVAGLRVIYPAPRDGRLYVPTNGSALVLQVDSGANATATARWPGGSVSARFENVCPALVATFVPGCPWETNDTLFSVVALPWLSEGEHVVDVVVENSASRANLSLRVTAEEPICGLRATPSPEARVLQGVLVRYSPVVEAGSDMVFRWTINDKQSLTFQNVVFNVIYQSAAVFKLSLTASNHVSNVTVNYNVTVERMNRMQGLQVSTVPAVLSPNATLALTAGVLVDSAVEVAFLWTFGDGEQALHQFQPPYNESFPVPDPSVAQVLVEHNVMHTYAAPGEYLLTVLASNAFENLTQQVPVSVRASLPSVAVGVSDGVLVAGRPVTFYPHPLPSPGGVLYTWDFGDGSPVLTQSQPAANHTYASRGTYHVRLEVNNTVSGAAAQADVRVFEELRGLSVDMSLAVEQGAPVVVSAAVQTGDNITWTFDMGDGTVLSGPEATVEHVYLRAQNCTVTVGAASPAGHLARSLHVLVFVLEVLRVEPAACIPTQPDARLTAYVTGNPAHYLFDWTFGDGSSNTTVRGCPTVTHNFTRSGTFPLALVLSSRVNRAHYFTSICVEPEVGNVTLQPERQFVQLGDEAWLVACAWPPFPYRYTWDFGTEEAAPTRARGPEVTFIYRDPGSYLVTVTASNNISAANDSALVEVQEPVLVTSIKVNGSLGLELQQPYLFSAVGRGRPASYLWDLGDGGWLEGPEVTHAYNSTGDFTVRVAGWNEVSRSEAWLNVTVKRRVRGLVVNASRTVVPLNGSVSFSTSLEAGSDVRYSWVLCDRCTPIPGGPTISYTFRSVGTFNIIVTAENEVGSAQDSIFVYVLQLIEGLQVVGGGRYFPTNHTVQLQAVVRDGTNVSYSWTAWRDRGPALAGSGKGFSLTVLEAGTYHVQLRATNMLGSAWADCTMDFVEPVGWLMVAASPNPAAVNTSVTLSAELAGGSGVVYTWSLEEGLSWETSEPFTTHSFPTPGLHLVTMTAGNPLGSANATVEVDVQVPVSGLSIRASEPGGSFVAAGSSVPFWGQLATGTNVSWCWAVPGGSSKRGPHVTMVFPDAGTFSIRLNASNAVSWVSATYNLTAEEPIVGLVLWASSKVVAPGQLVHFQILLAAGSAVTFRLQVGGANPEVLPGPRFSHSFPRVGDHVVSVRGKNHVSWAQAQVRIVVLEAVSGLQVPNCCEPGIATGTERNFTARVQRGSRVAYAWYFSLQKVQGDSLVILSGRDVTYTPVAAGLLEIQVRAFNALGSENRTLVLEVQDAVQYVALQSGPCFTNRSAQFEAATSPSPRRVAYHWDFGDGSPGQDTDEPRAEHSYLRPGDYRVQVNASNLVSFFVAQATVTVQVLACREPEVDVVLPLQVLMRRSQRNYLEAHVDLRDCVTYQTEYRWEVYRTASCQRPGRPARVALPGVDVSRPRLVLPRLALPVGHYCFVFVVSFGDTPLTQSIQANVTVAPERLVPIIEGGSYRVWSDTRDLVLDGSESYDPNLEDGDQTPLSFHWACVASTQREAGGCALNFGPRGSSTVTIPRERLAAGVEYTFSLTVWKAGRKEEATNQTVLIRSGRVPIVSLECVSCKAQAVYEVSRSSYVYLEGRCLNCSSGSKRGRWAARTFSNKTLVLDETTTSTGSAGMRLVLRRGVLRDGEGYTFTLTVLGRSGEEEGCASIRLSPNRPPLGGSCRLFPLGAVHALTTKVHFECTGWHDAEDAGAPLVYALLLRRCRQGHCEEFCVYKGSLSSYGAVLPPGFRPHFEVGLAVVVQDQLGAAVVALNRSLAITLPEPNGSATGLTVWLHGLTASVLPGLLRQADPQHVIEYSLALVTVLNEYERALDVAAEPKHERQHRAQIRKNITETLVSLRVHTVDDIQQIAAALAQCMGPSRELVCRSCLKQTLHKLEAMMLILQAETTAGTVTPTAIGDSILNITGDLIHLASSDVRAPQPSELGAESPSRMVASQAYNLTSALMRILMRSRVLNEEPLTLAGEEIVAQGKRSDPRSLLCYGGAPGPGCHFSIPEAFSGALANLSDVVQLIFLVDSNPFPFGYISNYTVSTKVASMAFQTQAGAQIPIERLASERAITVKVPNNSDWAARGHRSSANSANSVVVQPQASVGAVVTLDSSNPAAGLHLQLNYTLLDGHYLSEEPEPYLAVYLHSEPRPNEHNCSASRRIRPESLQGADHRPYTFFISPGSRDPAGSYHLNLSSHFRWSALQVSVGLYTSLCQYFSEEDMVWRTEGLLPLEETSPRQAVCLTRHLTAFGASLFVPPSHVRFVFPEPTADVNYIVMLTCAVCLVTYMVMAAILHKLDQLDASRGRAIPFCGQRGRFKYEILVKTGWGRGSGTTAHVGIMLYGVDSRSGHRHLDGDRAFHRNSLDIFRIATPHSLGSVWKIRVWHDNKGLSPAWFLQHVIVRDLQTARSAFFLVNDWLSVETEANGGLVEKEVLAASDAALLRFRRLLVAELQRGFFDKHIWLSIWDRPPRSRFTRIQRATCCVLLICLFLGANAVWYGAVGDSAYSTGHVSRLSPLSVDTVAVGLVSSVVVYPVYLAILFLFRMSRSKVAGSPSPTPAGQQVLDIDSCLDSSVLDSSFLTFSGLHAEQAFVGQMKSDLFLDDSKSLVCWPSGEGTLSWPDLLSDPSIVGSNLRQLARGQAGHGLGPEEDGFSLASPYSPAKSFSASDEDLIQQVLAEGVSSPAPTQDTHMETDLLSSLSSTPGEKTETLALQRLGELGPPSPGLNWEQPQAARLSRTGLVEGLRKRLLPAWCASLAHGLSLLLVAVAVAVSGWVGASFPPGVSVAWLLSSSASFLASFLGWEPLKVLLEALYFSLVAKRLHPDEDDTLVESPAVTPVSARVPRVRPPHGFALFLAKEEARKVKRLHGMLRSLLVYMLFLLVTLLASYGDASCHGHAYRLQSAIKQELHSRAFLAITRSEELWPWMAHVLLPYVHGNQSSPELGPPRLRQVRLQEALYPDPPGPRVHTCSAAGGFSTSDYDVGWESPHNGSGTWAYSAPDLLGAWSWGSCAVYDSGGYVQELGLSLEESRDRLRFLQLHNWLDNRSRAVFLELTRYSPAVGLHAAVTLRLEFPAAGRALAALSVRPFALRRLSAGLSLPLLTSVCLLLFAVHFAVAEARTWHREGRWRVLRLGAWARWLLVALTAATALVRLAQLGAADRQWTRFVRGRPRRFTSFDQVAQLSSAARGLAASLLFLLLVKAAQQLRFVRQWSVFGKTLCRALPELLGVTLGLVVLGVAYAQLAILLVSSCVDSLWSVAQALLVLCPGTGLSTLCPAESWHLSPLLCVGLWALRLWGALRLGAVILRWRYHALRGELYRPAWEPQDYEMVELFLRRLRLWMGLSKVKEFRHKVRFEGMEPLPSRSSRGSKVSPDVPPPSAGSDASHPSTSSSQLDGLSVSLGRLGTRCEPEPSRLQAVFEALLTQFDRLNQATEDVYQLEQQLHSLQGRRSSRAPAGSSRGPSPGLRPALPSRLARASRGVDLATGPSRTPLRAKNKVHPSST
row,effect of a mutation on the interaction,Variant
1,disrupting interaction,L884H
